The text below walks through data of patent US20140329752A1 (published 2014).

B1: modified calcitonin gene-related peptide antagonist of SEQ ID NO: 4 (peptide)
peptide: H-ACNTAACVLGRLSQELHRLQTYPRTNVGSKAF-NH2
modifications: not fully specified (bridges); printed as NH2-Ala-Cys-Asn-Thr-Ala-Ala-Cys-Val-Leu-Gly-Arg-Leu-Ser-Gln-Glu-Leu-His-Arg-Leu-Gln-Thr-Tyr-Pro-Arg-Thr-Asn-Val-Gly-Ser-Lys-Ala-Phe-NH2; cysteine pairing not given here
B2: modified calcitonin gene-related peptide antagonist of SEQ ID NO: 9 (peptide)
peptide: H-ACDTALCVLGRLSQELHRLQTYPRTNVGSKAF-NH2
modifications: not fully specified (bridges); printed as NH2-Ala-Cys-Asp-Thr-Ala-Leu-Cys-Val-Leu-Gly-Arg-Leu-Ser-Gln-Glu-Leu-His-Arg-Leu-Gln-Thr-Tyr-Pro-Arg-Thr-Asn-Val-Gly-Ser-Lys-Ala-Phe-NH2; cysteine pairing not given here
B3: modified calcitonin gene-related peptide antagonist of SEQ ID NO: 7 (peptide)
peptide: H-ACNLSACVLGRLSQELHRLQTYPRTNVGSKAF-NH2
modifications: not fully specified (bridges); printed as NH2-Ala-Cys-Asn-Leu-Ser-Ala-Cys-Val-Leu-Gly-Arg-Leu-Ser-Gln-Glu-Leu-His-Arg-Leu-Gln-Thr-Tyr-Pro-Arg-Thr-Asn-Val-Gly-Ser-Lys-Ala-Phe-NH2; cysteine pairing not given here
B4: modified calcitonin gene-related peptide antagonist of SEQ ID NO: 13 (peptide)
peptide: H-ACNLSACVLGRLSQELHRLQTYPTNTGSGTP-NH2
modifications: not fully specified (bridges); printed as NH2-Ala-Cys-Asn-Leu-Ser-Ala-Cys-Val-Leu-Gly-Arg-Leu-Ser-Gln-Glu-Leu-His-Arg-Leu-Gln-Thr-Tyr-Pro-Thr-Asn-Thr-Gly-Ser-Gly-Thr-Pro-NH2; cysteine pairing not given here
B5: modified calcitonin gene-related peptide antagonist of SEQ ID NO: 14 (peptide)
peptide: ACVLGACVLGRLSQELHRLQTYPVDPSSPHSY-NH2
modifications: not fully specified (bridges); printed as Ala-Cys-Val-Leu-Gly-Ala-Cys-Val-Leu-Gly-Arg-Leu-Ser-Gln-Glu-Leu-His-Arg-Leu-Gln-Thr-Tyr-Pro-Val-Asp-Pro-Ser-Ser-Pro-His-Ser-Tyr-NH2; cysteine pairing not given here
B6: modified calcitonin gene-related peptide antagonist of SEQ ID NO: 1 (peptide)
peptide: H-ACDTAACVLGRLSQELHRLQTYPRTNVGSKAF-NH2
modifications: not fully specified (bridges); printed as NH2-Ala-Cys-Asp-Thr-Ala-Ala-Cys-Val-Leu-Gly-Arg-Leu-Ser-Gln-Glu-Leu-His-Arg-Leu-Gln-Thr-Tyr-Pro-Arg-Thr-Asn-Val-Gly-Ser-Lys-Ala-Phe-NH2; cysteine pairing not given here
B7: modified calcitonin gene-related peptide antagonist of SEQ ID NO: 3 (peptide)
peptide: H-ACDTAVCVLGRLSQELHRLQTYPRTNVGSKAF-NH2
modifications: not fully specified (bridges); printed as NH2-Ala-Cys-Asp-Thr-Ala-Val-Cys-Val-Leu-Gly-Arg-Leu-Ser-Gln-Glu-Leu-His-Arg-Leu-Gln-Thr-Tyr-Pro-Arg-Thr-Asn-Val-Gly-Ser-Lys-Ala-Phe-NH2; cysteine pairing not given here
B8: modified calcitonin gene-related peptide antagonist of SEQ ID NO: 5 (peptide)
peptide: H-ACVLGACVLGRLSQELHRLQTYPRTNVGSKAF-NH2
modifications: not fully specified (bridges); printed as NH2-Ala-Cys-Val-Leu-Gly-Ala-Cys-Val-Leu-Gly-Arg-Leu-Ser-Gln-Glu-Leu-His-Arg-Leu-Gln-Thr-Tyr-Pro-Arg-Thr-Asn-Val-Gly-Ser-Lys-Ala-Phe-NH2; cysteine pairing not given here
B9: modified calcitonin gene-related peptide antagonist of SEQ ID NO: 6 (peptide)
peptide: H-ACRFGACVLGRLSQELHRLQTYPRTNVGSKAF-NH2
modifications: not fully specified (bridges); printed as NH2-Ala-Cys-Arg-Phe-Gly-Ala-Cys-Val-Leu-Gly-Arg-Leu-Ser-Gln-Glu-Leu-His-Arg-Leu-Gln-Thr-Tyr-Pro-Arg-Thr-Asn-Val-Gly-Ser-Lys-Ala-Phe-NH2; cysteine pairing not given here
B10: modified calcitonin gene-related peptide antagonist of SEQ ID NO: 2 (peptide)
peptide: H-ACDTASCVLGRLSQELHRLQTYPRTNVGSKAF-NH2
modifications: not fully specified (bridges); printed as NH2-Ala-Cys-Asp-Thr-Ala-Ser-Cys-Val-Leu-Gly-Arg-Leu-Ser-Gln-Glu-Leu-His-Arg-Leu-Gln-Thr-Tyr-Pro-Arg-Thr-Asn-Val-Gly-Ser-Lys-Ala-Phe-NH2; cysteine pairing not given here
B11: modified calcitonin gene-related peptide antagonist of SEQ ID NO: 12 (peptide)
peptide: H-CSNTAVCVLGRLSQELHRLQTYPRTNVGSKAF-NH2
modifications: not fully specified (bridges); printed as NH2-Cys-Ser-Asn-Thr-Ala-Val-Cys-Val-Leu-Gly-Arg-Leu-Ser-Gln-Glu-Leu-His-Arg-Leu-Gln-Thr-Tyr-Pro-Arg-Thr-Asn-Val-Gly-Ser-Lys-Ala-Phe-NH2; cysteine pairing not given here
B12: modified calcitonin gene-related peptide antagonist of SEQ ID NO: 8 (peptide)
peptide: H-CSNTAACVLGRLSQELHRLQTYPRTNVGSKAF-NH2
modifications: not fully specified (bridges); printed as NH2-Cys-Ser-Asn-Thr-Ala-Ala-Cys-Val-Leu-Gly-Arg-Leu-Ser-Gln-Glu-Leu-His-Arg-Leu-Gln-Thr-Tyr-Pro-Arg-Thr-Asn-Val-Gly-Ser-Lys-Ala-Phe-NH2; cysteine pairing not given here
B13: modified calcitonin gene-related peptide antagonist of SEQ ID NO: 11 (peptide)
peptide: H-ACNLSVCVLGRLSQELHRLQTYPRTNVGSKAF-NH2
modifications: not fully specified (bridges); printed as NH2-Ala-Cys-Asn-Leu-Ser-Val-Cys-Val-Leu-Gly-Arg-Leu-Ser-Gln-Glu-Leu-His-Arg-Leu-Gln-Thr-Tyr-Pro-Arg-Thr-Asn-Val-Gly-Ser-Lys-Ala-Phe-NH2; cysteine pairing not given here
B14: modified calcitonin gene-related peptide antagonist of SEQ ID NO: 15 (peptide)
peptide: ACDTAACVTHRLAGLLSRSGGVVKNNFVPTNVGSKAF-NH2
modifications: not fully specified (bridges); printed as Ala-Cys-Asp-Thr-Ala-Ala-Cys-Val-Thr-His-Arg-Leu-Ala-Gly-Leu-Leu-Ser-Arg-Ser-Gly-Gly-Val-Val-Lys-Asn-Asn-Phe-Val-Pro-Thr-Asn-Val-Gly-Ser-Lys-Ala-Phe-NH2; cysteine pairing not given here
B15: modified calcitonin gene-related peptide antagonist of SEQ ID NO: 10 (peptide)
peptide: H-ACDTAICVLGRLSQELHRLQTYPRTNVGSKAF-NH2
modifications: not fully specified (bridges); printed as NH2-Ala-Cys-Asp-Thr-Ala-Ile-Cys-Val-Leu-Gly-Arg-Leu-Ser-Gln-Glu-Leu-His-Arg-Leu-Gln-Thr-Tyr-Pro-Arg-Thr-Asn-Val-Gly-Ser-Lys-Ala-Phe-NH2; cysteine pairing not given here
B16: AC187 (peptide)
peptide: VLGKLSQELHKLQTYPRTNTGSNTY
modifications: not fully specified

Ends that are not written are not given here.

For the first assay, the target named is T1, amylin receptor AMY1, a CT (calcitonin) receptor/RAMP1 (receptor-activity modifying protein) complex (UniProt P30988 25-474; O60894 27-148, limits assumed). The experiment in a line: cell-based or functional assay.
T1 sequence (P30988 25-474 limits assumed, chain 1 of 2): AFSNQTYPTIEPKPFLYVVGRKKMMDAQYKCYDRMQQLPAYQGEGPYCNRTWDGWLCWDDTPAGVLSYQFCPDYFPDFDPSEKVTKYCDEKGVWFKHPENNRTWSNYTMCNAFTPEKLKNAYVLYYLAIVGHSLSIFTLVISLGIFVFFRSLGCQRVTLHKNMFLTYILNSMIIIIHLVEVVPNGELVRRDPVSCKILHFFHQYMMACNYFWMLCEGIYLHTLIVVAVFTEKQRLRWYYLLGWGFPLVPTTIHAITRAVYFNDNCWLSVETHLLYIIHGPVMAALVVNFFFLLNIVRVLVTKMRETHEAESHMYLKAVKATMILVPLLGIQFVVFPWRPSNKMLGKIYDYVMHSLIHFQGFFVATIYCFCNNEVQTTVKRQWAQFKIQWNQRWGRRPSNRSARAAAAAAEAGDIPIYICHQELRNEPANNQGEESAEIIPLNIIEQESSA
T1 sequence (O60894 27-148 limits assumed, chain 2 of 2): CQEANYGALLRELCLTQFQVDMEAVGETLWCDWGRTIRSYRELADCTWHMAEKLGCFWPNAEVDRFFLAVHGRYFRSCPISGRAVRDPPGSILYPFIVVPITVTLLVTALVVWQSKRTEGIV
On to B1, for which the “IC50 nM (calcium flux, inhibition of stimulation by 32 nM α-CGRP)” value stood at 12 nM.

Take B2: the “IC50 nM (calcium flux, inhibition of stimulation by 32 nM α-CGRP)” value was 9 nM.

With B3, the “IC50 nM (calcium flux, inhibition of stimulation by 32 nM α-CGRP)” value came to 8 nM.

For B4, the “IC50 nM (calcium flux, inhibition of stimulation by 32 nM α-CGRP)” value is 4 nM.

For the molecule B5, the “IC50 nM (calcium flux, inhibition of stimulation by 32 nM α-CGRP)” value was 1020 nM.

As for B6, the “IC50 nM (calcium flux, inhibition of stimulation by 32 nM α-CGRP)” value is 17 nM.

Take B7: the “IC50 nM (calcium flux, inhibition of stimulation by 32 nM α-CGRP)” value was 4 nM.

Turning to B8, the “IC50 nM (calcium flux, inhibition of stimulation by 32 nM α-CGRP)” value worked out at 75 nM.

B9: the “IC50 nM (calcium flux, inhibition of stimulation by 32 nM α-CGRP)” value was found to be 33 nM.

On to B10, for which the “IC50 nM (calcium flux, inhibition of stimulation by 32 nM α-CGRP)” value is 5 nM.

On to B11, for which the “IC50 nM (calcium flux, inhibition of stimulation by 32 nM α-CGRP)” value is 9 nM.

In the case of B12, the “IC50 nM (calcium flux, inhibition of stimulation by 32 nM α-CGRP)” value was found to be 16 nM.

For the molecule B13, the “IC50 nM (calcium flux, inhibition of stimulation by 32 nM α-CGRP)” value was found to be 9 nM.

Consider B14, for which the “IC50 nM (calcium flux, inhibition of stimulation by 32 nM α-CGRP)” value stood at 1240 nM.

As to B15, the “IC50 nM (calcium flux, inhibition of stimulation by 32 nM α-CGRP)” value turned out to be 9 nM.

For another assay, the target named is T1, amylin receptor AMY1, a CT (calcitonin) …. Briefly: cell-based or functional assay. This is another data set of the same source.
As to B16, the “IC50 nM (calcium flux, assay positive control)” value came to 8150 nM.
